Results taken from patent publication US20190359687A1 (Bayer, published 2019).
Numbering of substitutions follows the chain as printed. Names and notes keep the numbering of the source.

T1: native human glycophorin A protein (human, UniProt P02724 20-150)
T1 construct: mature; also called Hu-nat GPA
T1 sequence (looked up): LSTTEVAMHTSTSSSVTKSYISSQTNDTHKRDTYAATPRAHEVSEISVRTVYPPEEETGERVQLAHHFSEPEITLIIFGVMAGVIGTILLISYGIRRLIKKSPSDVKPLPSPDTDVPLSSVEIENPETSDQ

T2: human glycophorin A on human red blood cells or red blood cell membranes (human, UniProt P02724 20-150)
T2 construct: whole, on cells; also called hRBC; human RBC membranes
T2 sequence (looked up): T1 sequence (looked up)

T3: recombinant human glycophorin A ectodomain protein (human, UniProt P02724 20-91)
T3 construct: 72 amino acids of the extracellular region; also called Hu-rec GPA
T3 sequence: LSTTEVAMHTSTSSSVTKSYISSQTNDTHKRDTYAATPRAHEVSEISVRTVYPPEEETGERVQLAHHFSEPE

B1: TPP-4935, humanized 6C12 parental Fab (Hu6C12-24) (Fab, V domains shown)
VH: EVQLVQSGAEVKKPGASVKVSCKASGYTFTTYTIHWVRQAPGQGLEWIGYINPSSDYTRYNPKFKDRVTLTTDKSTSTAYMELRSLRSDDTAVYYCQTGTRDYWGQGTTVTVSS
VL: DIQLTQSPSFLSASVGDRVTITCSAASSVSYIYWFQQKPGKAPKLLIYSTSTLPSGVPSRFSGSGSGTEYTLTISSLQPEDFATYYCHQRNSFPFTFGQGTKLEIKR
notes: also called parent Fab; TPP-4935 (Parental)
B2: TPP-5835, Hu6C12-24 Fab variant VL: (S24R, A26S, S49A, P54Q, F95Y); VH: (I48M, L70M) (Fab, V domains shown)
VH: B1 VH with I48M, L70M
VL: B1 VL with S24R, A26S, S49A, P54Q, F95Y
notes: Built on the parental Fab TPP-4935
B3: TPP-5907, humanized and germlined 6C12 Fab; VL: (S24R, A26S, S49A, P54Q, F95Y); VH: (I48M, S54G, D56G, D66G, L70M, T72R) (Fab, V domains shown)
VH: B1 VH with I48M, S54G, D56G, D66G, L70M, T72R
VL: B1 VL with S24R, A26S, S49A, P54Q, F95Y
B4: TPP-5702, Hu6C12-24 Fab variant VL: (S24R, A26S, S49A, P54Q, F95Y) (Fab, V domains shown)
VH: B1 VH
VL: B1 VL with S24R, A26S, S49A, P54Q, F95Y
notes: as for B2
B5: TPP-5841, Hu6C12-24 Fab variant VL: (S24R, A26S, S49A, P54Q, F95Y); VH: (D66G, L70M) (Fab, V domains shown)
VH: B1 VH with D66G, L70M
VL: B1 VL with S24R, A26S, S49A, P54Q, F95Y
notes: as for B2
B6: TPP-5839, Hu6C12-24 Fab variant VL: (S24R, A26S, S49A, P54Q, F95Y); VH: (I48M, D66G, L70M, T72R) (Fab, V domains shown)
VH: B1 VH with I48M, D66G, L70M, T72R
VL: B1 VL with S24R, A26S, S49A, P54Q, F95Y
notes: as for B2

Molecular target: T1, native human glycophorin A protein
Assay: ELISA, Fab on coated native human GPA

Which “binding in ELISA relative to parental Fab” value does the source give for B1 here?
The value was 1 relative to parental Fab.

With B2 as the binder, how does the “binding in ELISA relative to parental Fab” value read?
The value was 5.2 relative to parental Fab.

For B3, which “binding in ELISA relative to parental Fab” value is on record?
Its value is 12.3 relative to parental Fab.

Which “binding in ELISA relative to parental Fab” value does the source give for B4 here?
Its value is 5.2 relative to parental Fab.

How did the “binding in ELISA relative to parental Fab” value turn out when B5 was run?
The value was 5.8 relative to parental Fab.

B6 was tested. Which “binding in ELISA relative to parental Fab” value did it give?
The value was 5.8 relative to parental Fab.

Molecular target: T4, Cynomolgus monkey glycophorin A on Cynomolgus monkey red blood cells or red blood cell membranes (Cynomolgus monkey)
T4 construct: whole, on cells; also called Cyno RBC; Cynomolgus monkey RBC membranes
Assay: ELISA, Fab on coated cyno RBC membranes

For B2, which “binding in ELISA relative to parental Fab” value is on record?
Its value is 1.4 relative to parental Fab.

For B3, which “binding in ELISA relative to parental Fab” value is on record?
The value was 1.9 relative to parental Fab.

How did the “binding in ELISA relative to parental Fab” value turn out when B4 was run?
The value was 1.1 relative to parental Fab.

Which “binding in ELISA relative to parental Fab” value does the source give for B5 here?
The value was 2.1 relative to parental Fab.

B6 was tested. Which “binding in ELISA relative to parental Fab” value did it give?
Its value is 2.3 relative to parental Fab.

Molecular target: T2, human glycophorin A on human red blood …
Assay: ELISA, Fab on coated human RBC membranes
Procedure: These membranes are prepared by first isolating red blood cells from citrated whole blood. Citrated whole blood is layered on to Ficol and centrifuged at low speed for 20 minutes to pellet the red blood cells. The supernatant containing plasma and other blood cells is discarded and the red blood cell pellet is subsequently washed 3 times in 10 cell volumes of phosphate buffered saline (PBS). A 10 ml pellet of purified red blood cells is resuspended in 30 ml of cold low osmorality 20 mM phosphate buffer (pH7.4) and incubated for 30 mins to break open the RBC. After Centrifugation at 10,000 rpm for 30 min at 5° C. the hemoglobin containing supernatant is discarded. To the membrane pellet another 30 ml of 20 mM phosphate buffer is added and the sample centrifuged again at 10,000 rpm for 30 min at 5° C. to pellet the membrane fraction. This wash and centrifugation step is repeated another 4 times. The red blood cell membranes are then resuspended in 20 mL of PBS to achieve an equivalent of approximately 2.5E9 cells/mL and stored frozen at −20° C. Binding of antibodies to RBC ghost can be measured by ELISA in which the RBC ghost suspension (5×10⁶ in 100 ul PBS) was added to each well of flat bottom 96-well ELISA microtiter plates (2HB, Immunolon) and the plates incubated overnight at 4° C. The plates were blocked with Starting blocking buffer (Thermo Fisher) for 2 hours at room temperature (RT). Antibodies or other test molecules were added to each well and incubated for 1.5 hours at RT. After 4 washes 100 ul of an appropriate detection antibody was added to each well and incubated for 1 hour at RT. After 4 washes the detection antibody was measured using appropriate detection reagents.

B1 was tested. Which “binding in ELISA relative to parental Fab” value did it give?
The value was 1 relative to parental Fab.

How did the “binding in ELISA relative to parental Fab” value turn out when B2 was run?
The value was 10.3 relative to parental Fab.

B3 was tested. Which “binding in ELISA relative to parental Fab” value did it give?
Its value is 90.1 relative to parental Fab.

For B4, which “binding in ELISA relative to parental Fab” value is on record?
Its value is 10.2 relative to parental Fab.

B5 was tested. Which “binding in ELISA relative to parental Fab” value did it give?
The value was 11.9 relative to parental Fab.

Which “binding in ELISA relative to parental Fab” value does the source give for B6 here?
The value was 5.8 relative to parental Fab.

Molecular target: T5, Cynomolgus monkey recombinant glycophorin A ectodomain (Cynomolgus monkey)
T5 construct: extracellular domain
Assay: ELISA, Fab on coated recombinant cyno GPA ectodomain

For B1, which “binding in ELISA relative to parental Fab” value is on record?
Its value is 1 relative to parental Fab.

B2 was tested. Which “binding in ELISA relative to parental Fab” value did it give?
Its value is 1.1 relative to parental Fab.

B3 was tested. Which “binding in ELISA relative to parental Fab” value did it give?
The value was 1.4 relative to parental Fab.

With B4 as the binder, how does the “binding in ELISA relative to parental Fab” value read?
Its value is 1.1 relative to parental Fab.

Which “binding in ELISA relative to parental Fab” value does the source give for B5 here?
The value was 1.2 relative to parental Fab.

How did the “binding in ELISA relative to parental Fab” value turn out when B6 was run?
The value was 1.2 relative to parental Fab.

Molecular target: T2, human glycophorin A on human red blood …
Assay: SPR (Biacore), Fab over human RBC membranes, 1:1 fit;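 further: human RBC membrane preparations captured on an L1 sensor surface, with antibody passed over them as analyte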
Procedure: (§1) Kinetic analysis of the antibody binding to human red blood cell membranes was also performed using surface plasmon resonance (SPR) using a Biacore instrument. In this assay membranes prepared from human red blood cells were attached to a L1 sensor matrix and antibodies were flowed over the RBC membranes.

What does the source list for B3?
Kd: 0.8 nM; koff: 0.004 s⁻¹; kon: 4.9e+06 M⁻¹ s⁻¹

Which results are given for B4?
Kd: 170 nM; koff: 0.11 s⁻¹; kon: 650000 M⁻¹ s⁻¹

What does the source list for B5?
Kd: 3.3 nM; koff: 0.0043 s⁻¹; kon: 1.3e+06 M⁻¹ s⁻¹

What does the source list for B6?
Kd: 1.6 nM; koff: 0.0035 s⁻¹; kon: 2.1e+06 M⁻¹ s⁻¹

Molecular target: T3, recombinant human glycophorin A …
Assay: ELISA, Fab on coated recombinant human GPA ectodomain

B1 was tested. Which “binding in ELISA relative to parental Fab” value did it give?
Its value is 1 relative to parental Fab.

Which “binding in ELISA relative to parental Fab” value does the source give for B2 here?
Its value is 4.3 relative to parental Fab.

How did the “binding in ELISA relative to parental Fab” value turn out when B3 was run?
The value was 6.9 relative to parental Fab.

B4 was tested. Which “binding in ELISA relative to parental Fab” value did it give?
Its value is 4.3 relative to parental Fab.

Which “binding in ELISA relative to parental Fab” value does the source give for B5 here?
The value was 4.7 relative to parental Fab.

Which “binding in ELISA relative to parental Fab” value does the source give for B6 here?
Its value is 4.7 relative to parental Fab.

Molecular target: T2, human glycophorin A on human red blood …
Assay: SPR (Biacore), Fab over human RBC membranes, 1:1 fit; * slight deviation possible
Procedure: as §1

With B1 as the binder, how does the Kd read?
Its Kd is 167 nM.

What about the koff of the same binder?
The koff was 0.031 s⁻¹.

What about the kon of the same binder?
The kon was 190000 M⁻¹ s⁻¹.
